{"source": "paper PMC3476979", "molecular_target": "endogenous phospho-IKKα/β, O15111;O14920", "experiment": "co-immunoprecipitation (IP with anti-Tax mab, blot with anti-phospho-IKK), band quantified as Phospho-IKK/Tax", "conditions": "293 T cells, parent: 100", "data": [{"substance": "wild-type Tax protein of Human T-lymphotropic virus type 1 (HTLV-1), C-terminal 6His tag (Tax-His) (from UniProt P03409) K6-8R", "values": [{"measurement": "percent of parent", "value": 10, "unit": "% WT"}]}, {"substance": "wild-type Tax protein of Human T-lymphotropic virus type 1 (HTLV-1), C-terminal 6His tag (Tax-His) (from UniProt P03409) K7R", "values": [{"measurement": "percent of parent", "value": 95, "unit": "% WT"}]}, {"substance": "wild-type Tax protein of Human T-lymphotropic virus type 1 (HTLV-1), C-terminal 6His tag (Tax-His) (from UniProt P03409) P79A; Q81A", "values": [{"measurement": "percent of parent", "value": 84, "unit": "% WT"}]}, {"substance": "wild-type Tax protein of Human T-lymphotropic virus type 1 (HTLV-1), C-terminal 6His tag (Tax-His) (from UniProt P03409) K4-8R", "values": [{"measurement": "percent of parent", "value": 2, "unit": "% WT"}]}, {"substance": "wild-type Tax protein of Human T-lymphotropic virus type 1 (HTLV-1), C-terminal 6His tag (Tax-His) (from UniProt P03409) K1-10R", "values": [{"measurement": "percent of parent", "value": 3, "unit": "% WT"}]}, {"substance": "wild-type Tax protein of Human T-lymphotropic virus type 1 (HTLV-1), C-terminal 6His tag (Tax-His) (from UniProt P03409) K7-8R", "values": [{"measurement": "percent of parent", "value": 27, "unit": "% WT"}]}, {"substance": "wild-type Tax protein of Human T-lymphotropic virus type 1 (HTLV-1), C-terminal 6His tag (Tax-His) (from UniProt P03409) M22", "values": [{"measurement": "percent of parent", "value": "< 1", "unit": "% WT"}]}]}
